Data published in patent US20250197491A1 (published 2025).

The binders below were run against Human full length LILRB1 (UniProt Q8NHL6 24-650) (assay: flow cytometry, HEK293 cells overexpressing LILRB1).
Chain of Human full length LILRB1 (Q8NHL6 24-650): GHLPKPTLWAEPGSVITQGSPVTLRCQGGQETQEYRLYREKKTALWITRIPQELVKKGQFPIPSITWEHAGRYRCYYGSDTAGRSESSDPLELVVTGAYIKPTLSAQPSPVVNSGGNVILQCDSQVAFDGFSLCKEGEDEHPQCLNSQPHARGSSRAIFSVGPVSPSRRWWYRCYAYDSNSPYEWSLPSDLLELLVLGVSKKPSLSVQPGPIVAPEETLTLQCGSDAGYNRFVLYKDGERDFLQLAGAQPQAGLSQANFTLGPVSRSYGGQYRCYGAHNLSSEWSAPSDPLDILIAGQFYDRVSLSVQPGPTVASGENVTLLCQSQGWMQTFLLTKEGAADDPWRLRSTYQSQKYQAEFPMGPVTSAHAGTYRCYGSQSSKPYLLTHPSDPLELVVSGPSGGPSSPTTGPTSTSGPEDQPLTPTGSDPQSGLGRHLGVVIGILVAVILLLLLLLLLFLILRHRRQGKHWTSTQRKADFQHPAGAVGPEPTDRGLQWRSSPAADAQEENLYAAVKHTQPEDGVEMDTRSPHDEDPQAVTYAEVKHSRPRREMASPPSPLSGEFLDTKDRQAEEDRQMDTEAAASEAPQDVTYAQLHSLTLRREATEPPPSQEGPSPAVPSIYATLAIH

| Binder | EC50 [nM] |
| --- | --- |
| Antibody 4 (antibody, V domains shown) VH: QVQLVQSGAEVKKPGASVKVSCKASGYTFTSYGISWVRQAPGQGLEWMGWISAYNGNTNYAQKLQGRVTMTTDTSTSTAYMELRSLRSDDTAVYYCARSYSGSYWWFDPWGQGTLVTVSS VL: not shown | 1.21 |
| Antibody 3 (antibody, V domains shown) VH: QVQLVQSGAEVKKPGASVKVSCKASGYTFTSYGISWVRQAPGQGLEWMGWISAYNGNTNYAQKLQGRVTMTTDTSTSTAYMELRSLRSDDTAVYYCARSYSGSHWWFDPWGQGTLVTVSS VL: not shown | 1.57 |
| Antibody 5 (antibody, V domains shown) VH: QVQLVESGGGLVKPGGSLRLSCAASGFTFSDYYMTWIRQAPGKGLEWVSYISISGITRYYADSVKGRFTISRDNAKNSLYLQMNSLRAEDTAVYYCARDQTGYFDYWGQGTLVTVSS VL: DIVMTQSPATLSVSPGEKTTLSCRASQSFSSNLAWYQQKPGQAPRLLIYGASTRATGIPARFSGSGSGTEFTLTISSLQSEDFAVYYCQQYINWPHTFGQGTKVEIK | 2.24 |

The next binders have a lower EC50 than those just listed; values first:

| EC50 [nM] | Binder |
| --- | --- |
| 0.37 | Antibody 1 (antibody, V domains shown) VH: QVQLVESGGGLVKPGGSLRLSCAASGFTFSDYYMSWIRQAPGKGLEWVSYISSSGSIKKYADSVKGRFTISRDNAKNSLYLQMNSLRGEDTAVYYCARTNWHFDYWGQGTLVTVSS VL: EIVLTQSPGTLSLSPGERATLSCRASQSVSSSYLAWYQQKPGQAPRLLIFGASTRATGIPDRFSGSGSGTDFTLTISRLEPEDVAVYYCQQYYSTPFTFGPGTKVDIK |
| 0.52 | Antibody 2 (antibody, V domains shown) VH: QVQLVESGGDLVKPGGSLRLSCAASGFTFRDYYMSWIRQAPGKGLEWVSYISPSGSTIFYADSVKGRFTISRDNAKNSLYLQMNSLRAEDTAVYYCAKDRVRLFDYWGQGTLVTVSS VL: EIVLTQSPATLSLSPGERATLSCRASQSVSSSYLAWYQQKPGQAPRLLIYGASTRATGIPARFSGSGSGTDFTLTISRLEPEDFAVYYCQQRSNWPITFGQGTRLEIK |
